Substitutions are numbered along the chain they refer to. Like-named read-outs stand apart in the source and are kept apart here.
B1: anti-TIM-3 antibody clone G7 (antibody, V domains shown)
VH: EVQLVQSGAEVKKPGASVKVSCKASGYTFTSYYMHWVRQAPGQGLEWMGIINPSGGSTSYAQKFQGRVTMTRDTSTSTVYMELSSLRSEDTAVYYCARDQYSSGWYYYGMDVWGQGTTVTVSS
VL: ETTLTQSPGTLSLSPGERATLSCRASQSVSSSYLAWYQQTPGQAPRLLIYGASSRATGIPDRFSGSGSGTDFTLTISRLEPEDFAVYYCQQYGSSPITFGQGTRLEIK
B2: anti-TIM-3 antibody clone G6 (antibody, V domains shown)
VH: QVQLQESGPGLVKPSGTLSLTCAVSGGSISSSNWWSWVRQPPGKGLEWIGEIYHSGSTNYNPSLKSRVTISVDKSKNQFSLKLSSVTAADTAVYYCARVVAVAGTVDYWGQGTLVTVSS
VL: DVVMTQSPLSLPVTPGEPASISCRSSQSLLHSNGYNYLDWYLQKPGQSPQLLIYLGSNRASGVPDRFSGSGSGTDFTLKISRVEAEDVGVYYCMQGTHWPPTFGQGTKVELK
B3: anti-TIM-3 antibody clone G9 (antibody, V domains shown)
VH: B1 VH with E1Q, V5Q, Q100L, S103Y, W105F
VL: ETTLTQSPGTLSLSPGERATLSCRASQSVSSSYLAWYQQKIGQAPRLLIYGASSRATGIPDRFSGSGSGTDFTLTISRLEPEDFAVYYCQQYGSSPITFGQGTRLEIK
B4: anti-TIM-3 antibody clone A11 (antibody, V domains shown)
VH: QVQLQQWGAGLLKPSETLSLTCAVYGGSFSGYYWSWIRQPPGKGLEWIGEINHSGSTNYNPSLKSRVTISVDTSKNQFSLKLSSVTAADTAVYYCARGYVAGFDYWGQGTLVTVSS
VL: QSVVTQPPSVSAAPGQKVTISCSGSSSNIGNNYVSWYQQLPGTAPKLLIYGNNWRPSGIPDRFSGSKSGTSATLAISGLQTGDEADYYCETWDSSLSAGVFGGGTKLTVL
B5: anti-TIM-3 antibody clone B10 (antibody, V domains shown)
VH: QVQLQESGPGLVKASETLSLTCTVSGGSIGSSDYYWGWIRQPPGKGLEWIGSIYYSGSTYYNPSLKSRVTMSVDTPNNQFSLKLSSVTAADTAVYYCARGEHRGEFDYWGQGTLVTVSS
VL: EIVLTQSPATLSFSPGERATLSCRASQSVGSYLAWYQQRPGQAPRPLIYDATNRATGIPTRFSGSGSGTDFTLTISSLEPEDFATYYCQHRRTFGRGTKLEIK
B6: anti-TIM-3 antibody clone A3 (antibody, V domains shown)
VH: QVQLVQSGAEVKKPGASVKVSCKASGYTFTSYYMHWVRQAPGQGLEWMGIINPSGGSTSYAQKFQGRVTMTRDTSTSTVYMELSSLRSEDTAVYYCARSPGVVTALFDYWGQGTLVTVSS
VL: DIQMTQSPSFMSASVGDRVTITCRASQDIGSYLAWYQQKPGKAPKLLIYAASTLQSGVPSRFSGSGSGTDFTLTINSLQPEDFATYYCQQSYSSPPTFGPGTTLEIK

Tests used:
[1] = molecular target: T1, human TIM-3 coupled to human Fc (human, UniProt Q8TDQ0 22-200); assay: SPR
[2] = molecular target: T1, human TIM-3 coupled to human Fc; assay: SPR; remark: listed apart in the source

Binder	Kd [1]	Kd [2]
B1	620 pM	–
B2	2520 pM	–
B3	630 pM	–
B4	–	1260 pM
B5	260 pM	–
B6	440 pM	–
